Values quoted from earlier work as cited in paper PMC9949911.

Biological target: IL-18bp (Homo sapiens) (UniProt O95998)
Sequence (O95998 31-194): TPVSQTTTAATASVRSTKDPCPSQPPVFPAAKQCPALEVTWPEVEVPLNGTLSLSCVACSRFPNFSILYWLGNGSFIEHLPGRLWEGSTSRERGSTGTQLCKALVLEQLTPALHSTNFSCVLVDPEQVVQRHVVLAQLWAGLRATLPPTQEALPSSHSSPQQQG

Chain of IL-18 (Q14116 37-193): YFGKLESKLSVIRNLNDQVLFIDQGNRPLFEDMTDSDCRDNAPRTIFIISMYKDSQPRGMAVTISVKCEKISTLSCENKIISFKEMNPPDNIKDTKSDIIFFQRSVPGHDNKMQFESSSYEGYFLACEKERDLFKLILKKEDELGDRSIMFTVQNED

In the case of IL-18 (from UniProt Q14116), the Kd is given as 0.05 nM.
